Consider one protein from paper PMC6300008.

The nature of this data set: LDH release into supernatant, 24 h. The note with it: glycan lost; control: WT-transfected BV2 cells plus LPS, co-cultured with neurons. Background: LDH leaks from cells whose membrane has failed.

B1: CD200R1 (CD200 receptor 1): N44Q (protein)
parent chain: MFCFWRTSALAVLLIWGVFVAGSSCTDKNQTTQNNSSSPLTQVNTTVSVQIGTKALLCCFSIPLTKAVLITWIIKLRGLPSCTIAYKVDTKTNETSCLGRNITWASTPDHSPELQISAVTLQHEGTYTCETVTPEGNFEKNYDLQVLVPPEVTYFPEKNRSAVCEAMAGKPAAQISWSPDGDCVTTSESHSNGTVTVRSTCHWEQNNVSDVSCIVSHLTGNQSLSIELSRGGNQSLRPYIPYIIPSIIILIIIGCICLLKISGFRKCKLPKLEATSAIEEDEMQPYASYTEKSNPLYDTVTKVEAFPVSQGEVNGTDCLTLSAIGI
With B1, the “other: neuronal death in co-culture” value is recorded as “increases”.
